Measurements taken from PMC12964555, “Fecal Detection of Calprotectin Subunits Links Inflammatory Bowel Disease Activity With Chronicity of Intestinal Inflammation” (Gastroenterology, 2025).

T1: human recombinant S100A9 (human), P06702
T1 chain: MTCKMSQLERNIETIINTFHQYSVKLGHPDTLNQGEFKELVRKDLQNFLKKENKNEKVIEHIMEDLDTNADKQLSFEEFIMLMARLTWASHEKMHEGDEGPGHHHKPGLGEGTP

T2: human recombinant S100A9 (human, UniProt P06702 1-114)
T2 construct: S100A9, human, recombinant; Alone it runs as a homodimer by SEC; In the 1:1 mix with S100A8 it forms the calprotectin heterotetramer; also called S100A9 homodimers; source: human recombinant, generated by the authors, purity confirmed
T2 sequence (looked up): T1 chain

B1: human recombinant S100A9, P06702 1-114 (natural protein)
chain: T1 chain
B2: human recombinant S100A8 (natural protein, UniProt P05109 1-93, looked up)
chain: MLTELEKALNSIIDVYHKYSLIKGNFHAVYRDDLKKLLETECPQYIRKKGADVWFKELDINTDGAVNFQEFLILVIKMGVAAHKKSHEESHKE
notes: S100A8, human, recombinant; Alone it runs as a homodimer by SEC; In the 1:1 mix with S100A9 it forms the calprotectin heterotetramer; also called S100A8 homodimers; S100A8/S100A8 homodimers; source: human recombinant, generated by the authors, purity confirmed

What was measured:
Experiment in all cases: SEC; human recombinant S100A8, S100A9 or their 1:1 mix (CP) run as reference proteins; sizes read from the elution
[1] = target: T1, human recombinant S100A9 (human), P06702
human recombinant S100A9 = target: T2, human recombinant S100A9; details: both partners purified
[2] = target: the molecule itself

Binder | stoichiometry N [1] | binding result (human recombinant S100A9) | stoichiometry N [2]
B1 | 2 |  | 
B2 |  | binds | 2
